Test results as given in the supplement of paper PMC9170038.

Tested on: MS2 coat protein
Assay: apparent KD of MS2 coat protein; designed switch direction (-1 OFF switch, 1 ON switch): -1; higher = weaker reporter binding
Outline: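 Designed RNA switches sharing common flanks were transcribed on Illumina chips by stalled E. coli RNA polymerase. They were titrated with SNAP-549-labelled MS2 coat protein, from 0.7 or 1.5 nM doubling to 3 µM, in Tris-HCl pH 7.5 buffer with KCl, MgCl2, BSA, DTT, tRNA and Tween-20. Titrations ran without input, with 200 uM small-molecule ligand, or with an oligonucleotide input. The apparent KD of each design is the median over its clusters, after curve-fitting of normalised cluster fluorescence.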

[1] = input ligand: microRNA oligo, concentration not stated
[2] = Eterna round: R95, input ligand: FMN 200 uM
[3] = Eterna round: R95, input ligand: microRNA oligo, concentration not stated
[4] = Eterna round: R95, input ligand: none

Sequence | apparent KD of MS2 coat protein (input ligand: FMN 200 uM) [nM] | apparent KD of MS2 coat protein (input ligand: none) [nM] | apparent KD of MS2 coat protein [1] [nM] | apparent KD of MS2 coat protein [2] [nM] | apparent KD of MS2 coat protein [3] [nM] | apparent KD of MS2 coat protein [4] [nM]
AAGAGUAGAGGAUAUUGUUUAUGGCACAUGAGGAUCACCCAUGUAGCGAGAGUGGUGCCACAAGAAGGUUGCAUGA [Eternabot (L2) Solution 71] (Eterna round: R97, puzzle: Exclusion 5) | 42.3 | 52.5 | – | – | – | –
GCGGGCCCGGGAGGAUAUACAUGAGGAUCACCCAUGUGGGCCCGGGCCCGCGGGCCCGGGCCCGUGUAGAAGGCCCGGGCCCGC [-64.9, -63.3 kcal, A 14%] (Eterna round: R96, puzzle: Exclusion NG 2) | 28 | 14.2 | 10.1 | – | – | –
UAUAUAUAGUAAGGAUAUAUAUUUUUUUUAUAAAUAGAAGGUACAGACAUGAGGAUCACCCAUGUUAUAAUAUGGACAUGUGGA [JMF's Solution 2] (Eterna round: R96, puzzle: Exclusion NG 1) | – | – | 77.4 | – | – | –
GCUUCGGCAGGAUAUACAUGAGGAUCACCCAUGUGCUUCGGCUUGAUCAAGUUGAAGUGUAGAAGGGUUGAAGU [-25.5, -22.5 kcal, 26% A, 3 bis, 3 bis] (Eterna round: R97, puzzle: Exclusion 3) | 36.8 | 78.7 | – | – | – | –
UGUUGUCGCGUAGGAUAUGAGGAUCACCCAUAGAAGGAUAUCGAAAGAGAAGGUCUGAGGAUUACCCAGAAGGACGGGACAACU [pwkr exNG2 2xF5 2xFMN.14] (Eterna round: R96, puzzle: Exclusion NG 2) | 682 | 151 | 160 | – | – | –
UUAUUGGUUGUGAGGAUAUCGGAUAGAUAGAUAUUCGAGAAGGCACAUGAGGAUCACCCAUGUGUGAUUAGAAA [JR_BMEx4_Sub048] (Eterna round: R97, puzzle: Brourd's mod of Exclusion 4) | 193 | 25.9 | – | – | – | –
UCUCGCAGGCAAGGAUAUCCUACAUUGUUCUGGCCCGGGCAUGUUACAUGAGGAUCACCCAUGUGGGAGAAGGUGCGCCAGGGC [Design 34] (Eterna round: R96, puzzle: Exclusion NG 2) | 30.6 | 30.6 | 16.3 | – | – | –
AGUUCAAGGAAUUCUUCUGACAUGAGGAUCACCCAUGUGCUUUGCAAGUGUUGCUCGUCGCCUAGAACGUUAAGUAA [Eternabot (Original) Solution 32] (Eterna round: R97, puzzle: Sensor, turn-off variant 1) | 158 | 225 | – | – | – | –
ACAUGAGGAUCACCCAUGUCUGGCUGGUCCGUCUCGGCUGUCGAGGAUAUAGCUCGGUGUCCGCGCUAGAAGGCGGGAGCUGGU [Aenatbe mod 82] (Eterna round: R96, puzzle: Exclusion NG 3) | 631 | 143 | 78 | – | – | –
AAACACUUAGGAUAUACAUGAGGAUCACCCAUGUCAGACAACGACUACACAAAGUCAUGUAGAAGGAAGUCAAG [Islarele] (puzzle: Exclusion 3) | – | – | – | 24.3 | 24.1 | 26
UGAUGACAUGAGGAUCACCCAUGUCAGGAUAUGCUUCGGCUUCGGAAAUGAAGUUGAAGUAGAAGGGACUGUCG [-27.1, -24.1 kcal, A 28% sequence 3 bis] (Eterna round: R97, puzzle: Exclusion 1) | 37.7 | 27.8 | – | – | – | –
AGCGGUGUUCAGGAUAUCUGGUUAUGACACAUGAGAGAAGGGAGCACAUGAGGAUCACCCAUGUGACCUUCGCG [Eternabot (Original) Solution 23] (Eterna round: R97, puzzle: Exclusion 6) | 16 | 15.5 | – | – | – | –
AAGUCACAGGGAGGAUAUGUGAAAGGAAGUGUAACAGAAGGCCCAACGUAGGGCGAGACAUGAGGAUCACCCAUGUAUAAAAGA [PowerStrip EXNG 1.16] (Eterna round: R96, puzzle: Exclusion NG 1) | 28.9 | 25.9 | 20.8 | – | – | –
ACAGCGUGAGGAUAUACAUGAGGAUCACCCAUGUAUGGCAGGUUAUCCUGUCGUAAGUGUAGAAGGCACGCUGU [Exclusion 3 - Oddities v.4 ( A small slide from ms2 to fmn)] (puzzle: Exclusion 3) | – | – | – | – | 18.8 | –
UGCUGACGAGGAUAUACAUGAGGAUCACCCAUGUUGGUUCAGCGACUUCGGUCGCAAUGUAGAAGGCGUCAGCA [E3/9-A5] (Eterna round: R97, puzzle: Exclusion 3) | 230 | 523 | – | – | – | –
UAUAUAUAGUAAGGAUAUGUAUUUAUUUUAUAAACAGAAGGUACUGACAUGAGGAUCACCCAUGUUUUAGUGUGGGCAUGUAGA [JMF's solution 4] (Eterna round: R96, puzzle: Exclusion NG 1) | – | – | 67 | – | – | –
CCUUGUGUUGAGGAUAUGCGCCGGCUCGCUGGCGCAGAAGGCGGCACAUGAGGAUCACCCAUGUCAGUUCGCGA [salish99_ex6_r004_012] (Eterna round: R97, puzzle: Exclusion 6) | 336 | 29.2 | – | – | – | –

Sequence | apparent KD of MS2 coat protein (input ligand: FMN 200 uM) [nM] | apparent KD of MS2 coat protein (input ligand: none) [nM] | apparent KD of MS2 coat protein [1] [nM] | apparent KD of MS2 coat protein [2] [nM] | apparent KD of MS2 coat protein [3] [nM] | apparent KD of MS2 coat protein [4] [nM]
AUCAUGUAAGGAUAUCUUAUAUGGAUCUUCGGAUCAAGUUAAGAGAAGGUACAUGAGGAUCACCCAUGUAUAAC [Ex4-3: 32] (puzzle: Exclusion 4) | – | – | – | – | 24.3 | –
GCGAAAGCAAGCAAGUGAAACAUGAGGAUCACCCAUGUCCUCAUUUGUUCGUCUUAUAAGCUAUGCGAAAGCAUAGC [Sensor 3, v1 - 7] (puzzle: Sensor v3, turn-off variant 1) | – | – | – | 18.4 | 218 | 19.4
AACAAAACGCGAGGAUAUCGCCAACAUGAGGAUCACCCAUGUCACGGGUGCAAAUGUCUUCUAGGCGAGAAGGCGCAUCCAUAC [Diatza] (Eterna round: R96, puzzle: Exclusion NG 2) | 704 | 641 | 344 | – | – | –
UUUGUCUGUGUGAGGAUAUACUUGUUUGGGUUUUUGUAGAAGGCACAUGAGGAUCACCCAUGUAUUUUGUCGUG [JR_BME4_Sub018] (Eterna round: R96, puzzle: Brourd's mod of Exclusion 4) | 77.7 | 41.9 | 34.1 | – | – | –
CAUGAUCUUCGGAUCAUGUACAUGAGGAUCACCCAUGUUACGAGUUGAUCCUCAUACAAGCUUUUUGCUCGUCUUAU [Sensor v3 - Turn-off variant 1 - 26] (puzzle: Sensor v3, turn-off variant 1) | – | – | – | 22.2 | 14.8 | 20.8
GUAGAGUCAGGAUAUACAGAAGAAGCAUGGAAAACAUGGAUACAUGAGGAUCACCCAUGUAGAAGGGACUCUAC [ChP 11-04-2015 #2] (puzzle: Exclusion 2) | – | – | – | 83.6 | 33.2 | 41.5
UGGAGUAUGUAGGAUAUUCAGGCAAAGAAAGCCGAAGAAGGACAUACUUGAGGAUCACCCAAGUUGUCCAAAAU [Zaanatatri] (Eterna round: R97, puzzle: Exclusion 6) | 25.8 | 15.1 | – | – | – | –
CAGUACUGAGGAUAUACAUGAGGAUCACCCAUGUGUUCCGGCUAGGAAACUAGCAAAAGUAGAAGGCAGUACUG [salish99_ex3_r3_079] (puzzle: Exclusion 3) | – | – | – | 368 | 30.8 | 28.5
GCCUGCUGGCGAGGAUAUCCUGUGCGGUUCCGGCUCGUGUCUGUUACAUGAGGAUCACCCAUGUGGGAGAAGGUGUCUGUGGCC [Design 99] (Eterna round: R96, puzzle: Exclusion NG 2) | 17.7 | 22.4 | 15.7 | – | – | –
GGAAGGAGUGUCAGGAUAUCCGGAGGGAAACCUCCGGAGAAGGGACAUGAGGAUCACCCAUGUAGAGGAAGGAG [AK-MS2ROC-r4-Bmoexclusion4-9] (Eterna round: R97, puzzle: Brourd's mod of Exclusion 4) | 561 | 441 | – | – | – | –
AUGCUCCGUGUAGGAUAUCGCCGUAUUACUCGGCGAGAAGGACAUGAGGAUCACCCAUGUAUGUUAUUAUCACGUGUGGCGCGC [Design 46] (Eterna round: R96, puzzle: Exclusion NG 1) | 35.2 | 18.6 | 15.4 | – | – | –
GAAAAGGUAGGAUAUACGAAAAAAAAGGGUAGAAAAAAGACACAUGAGGAUCACCCAUGUAGAAGGACCAAAAG [salish99_ex2_r3_019] (puzzle: Exclusion 2) | – | – | – | 62.5 | 21.7 | 30.3
AAAACGUCAGGAUAUCCAAUAUAUGACAUGAGGAUCACCCAUGUUUCCACUCGUACCUCCGGAGAAGGGACUUAUA [Ex5 #83] (Eterna round: R97, puzzle: Exclusion 5) | 43.9 | 46.2 | – | – | – | –
UCAUACGGUGAGGAUAUCUCCACUAAAGUGUGUAGAGAAGGCGCUACAUGAGGAUCACCCAUGUUUAUGGGCAG [Ex-6 Malc#13] (Eterna round: R96, puzzle: Exclusion 6) | – | – | 236 | – | – | –
GUUCCGGGAGGAUAUACAUGAGGAUCACCCAUGUUCACCAGCUUUAGCUACGACCUAUGUAGAAGGUCUGGAGA [Eternabot (L1) Solution 36] (Eterna round: R97, puzzle: Exclusion 3) | 46.7 | 39.7 | – | – | – | –
CUUUUGUGAGGAUAUUAGUAGUAAAUAAAUAAAAUUAUUACUGAGAAGGCACAUGAGGAUCACCCAUGUUCCUC [salish99_ex4_r3_062] (Eterna round: R96, puzzle: Exclusion 4) | 533 | 36.6 | 32.9 | – | – | –
